Values quoted from earlier work in publication PMC6722209.

Experiments:
[1] = target: IgG1 Fc Fc (Homo sapiens) [IgG part: P01857]; assay: fluorescence anisotropy
[2] = target: IgG1 Fc Fc (Homo sapiens) [IgG part: P01857]; assay: ITC and SPR

Sequence of TRIM21 (P19474 whole entry): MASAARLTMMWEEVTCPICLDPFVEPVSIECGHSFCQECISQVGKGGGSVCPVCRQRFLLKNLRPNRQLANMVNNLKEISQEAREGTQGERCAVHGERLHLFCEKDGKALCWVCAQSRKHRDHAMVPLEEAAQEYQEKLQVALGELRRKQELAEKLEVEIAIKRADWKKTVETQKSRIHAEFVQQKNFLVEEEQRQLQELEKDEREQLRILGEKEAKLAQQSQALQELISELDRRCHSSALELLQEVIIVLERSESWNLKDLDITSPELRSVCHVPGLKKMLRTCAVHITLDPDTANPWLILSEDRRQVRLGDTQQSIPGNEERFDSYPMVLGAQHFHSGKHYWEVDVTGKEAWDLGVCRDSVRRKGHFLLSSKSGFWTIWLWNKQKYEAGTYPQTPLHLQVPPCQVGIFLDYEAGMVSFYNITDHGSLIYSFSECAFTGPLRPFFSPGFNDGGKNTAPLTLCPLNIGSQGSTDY
Sequence of TRIM21 PRYSPRY (P19474 268-465): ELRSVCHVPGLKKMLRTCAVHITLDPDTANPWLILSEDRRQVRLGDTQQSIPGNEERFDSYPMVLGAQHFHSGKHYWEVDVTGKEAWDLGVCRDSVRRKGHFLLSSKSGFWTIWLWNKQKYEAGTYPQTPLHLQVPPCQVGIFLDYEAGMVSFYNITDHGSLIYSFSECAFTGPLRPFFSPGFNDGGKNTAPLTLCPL

Row | Kd [1] | Kd [2] | Substance
1 | 0.6 nM |  | TRIM21 (from UniProt P19474)
2 |  | 175 nM | TRIM21 PRYSPRY (from UniProt P19474)
